Measured values published in PMC9577226, “In vitro selection and optimization of high-affinity aptamer for milk allergen α-lactalbumin and its application in dual-mode detection”.

B1: LA-2 (ssDNA)
DNA: AGCAGCACAGAGGTCAGATGGGCTGCGAACAGTTGCATATGGCGCGACTCTAGGCGGGTCCCTATGCGTGCTACCGTGAA
B2: LA-10 (ssDNA)
DNA: AGCAGCACAGAGGTCAGATGTAGTGCTGCGAAGTTGGCTCCGGCGGCGTCAGTCTAGCCGCCTATGCGTGCTACCGTGAA
B3: LA-9 (ssDNA)
DNA: AGCAGCACAGAGGTCAGATGCTGGGCTGCGAATGACGAATAAATACGCCGTTTCAGACGGCCTATGCGTGCTACCGTGAA
B4: LA-11 (ssDNA)
DNA: AGCAGCACAGAGGTCAGATGTGGGTGCTGCGAAAGGACGGCATGGGGTCCAAAAGACCCCCCTATGCGTGCTACCGTGAA
B5: LA-1 (ssDNA)
DNA: AGCAGCACAGAGGTCAGATGGTGCTGCGAACTTAACGCAAGATAGGCTGGACGCGAGTCCCCTATGCGTGCTACCGTGAA
B6: LA-1t (structured_DNA)
DNA: AGCAGCACAGAGGTCAGATGGTGCTGCGAA

Biological target: T1, alpha-lactalbumin (α-La) (Bos taurus (bovine milk), UniProt P00711 20-142)
T1 sequence: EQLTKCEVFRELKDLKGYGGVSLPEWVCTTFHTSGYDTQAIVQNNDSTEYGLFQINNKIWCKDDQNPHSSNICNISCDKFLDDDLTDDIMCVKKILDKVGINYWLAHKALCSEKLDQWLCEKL
Experiment: fluorescence graphene oxide (GO) assay; 50 mM Tris-HCl, 5 mM KCl, 100 mM NaCl, 1 mM MgCl2, pH 7.4; 100 nM FAM-aptamer, 0-400 ug/ml α-La, 1 h in the dark, then GO 15 min; assay temperature not stated (SELEX at 37 °C)
Settings: protein: commercial; label: 5'-FAM; 5' stem-loop (predicted)

Compared with B1, B2 is 1.7-fold higher in Kd: 101 ± 21.3 nM for the first, 168 ± 28.9 nM for the second. The first binds more tightly here.

B3 and B4 are within 1.5-fold of each other in Kd: 253 ± 32.2 nM for the first, 175 ± 28.3 nM for the second.

Work on B5 yielded a Kd of 92.6 ± 18 nM.

Same assay, conditions: protein: commercial; label: 5'-FAM; hairpin

B6 was tested, and the Kd was 14.1 ± 4.15 nM.
